Experimental data taken from PMC12728192 (2025).
Ends that are not written are not given here.

What was measured:
[1] = biological target: T1, Thermothelomyces thermophilus SAM complex (sorting and assembly machinery complex; Sam50:Sam35:Sam37, monomer) (Thermothelomyces thermophilus); experiment: MST; replicate 1; detergent
[2] = biological target: T1, Thermothelomyces thermophilus SAM …; experiment: MST; replicate 6; detergent
[3] = biological target: T1, Thermothelomyces thermophilus SAM …; experiment: MST; replicate 3; detergent

T1 sequence (chain, as listed by the source, chain 1 of 3): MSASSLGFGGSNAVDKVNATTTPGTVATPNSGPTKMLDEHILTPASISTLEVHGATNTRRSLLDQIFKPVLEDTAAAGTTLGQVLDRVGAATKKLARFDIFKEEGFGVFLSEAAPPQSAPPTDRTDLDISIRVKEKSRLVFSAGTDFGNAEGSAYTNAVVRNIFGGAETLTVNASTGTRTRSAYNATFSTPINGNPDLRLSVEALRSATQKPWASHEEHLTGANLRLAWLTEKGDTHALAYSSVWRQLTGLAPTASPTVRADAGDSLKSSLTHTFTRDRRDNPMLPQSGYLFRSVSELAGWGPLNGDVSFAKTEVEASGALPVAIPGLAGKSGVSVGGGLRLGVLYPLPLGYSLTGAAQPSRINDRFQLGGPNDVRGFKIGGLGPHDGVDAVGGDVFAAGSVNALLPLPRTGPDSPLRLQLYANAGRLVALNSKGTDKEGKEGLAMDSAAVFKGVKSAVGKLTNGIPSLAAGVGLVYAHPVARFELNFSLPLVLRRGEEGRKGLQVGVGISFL
T1 sequence (chain, as listed by the source, chain 2 of 3): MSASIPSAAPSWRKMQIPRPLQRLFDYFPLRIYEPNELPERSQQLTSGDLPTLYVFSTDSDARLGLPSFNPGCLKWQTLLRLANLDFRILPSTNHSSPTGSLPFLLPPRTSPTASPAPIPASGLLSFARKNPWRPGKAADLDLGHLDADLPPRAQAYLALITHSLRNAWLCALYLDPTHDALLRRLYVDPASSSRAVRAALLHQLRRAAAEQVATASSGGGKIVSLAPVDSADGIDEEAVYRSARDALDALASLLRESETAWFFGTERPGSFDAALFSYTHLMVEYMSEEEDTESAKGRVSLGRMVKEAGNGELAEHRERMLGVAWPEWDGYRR
T1 sequence (chain, as listed by the source, chain 3 of 3): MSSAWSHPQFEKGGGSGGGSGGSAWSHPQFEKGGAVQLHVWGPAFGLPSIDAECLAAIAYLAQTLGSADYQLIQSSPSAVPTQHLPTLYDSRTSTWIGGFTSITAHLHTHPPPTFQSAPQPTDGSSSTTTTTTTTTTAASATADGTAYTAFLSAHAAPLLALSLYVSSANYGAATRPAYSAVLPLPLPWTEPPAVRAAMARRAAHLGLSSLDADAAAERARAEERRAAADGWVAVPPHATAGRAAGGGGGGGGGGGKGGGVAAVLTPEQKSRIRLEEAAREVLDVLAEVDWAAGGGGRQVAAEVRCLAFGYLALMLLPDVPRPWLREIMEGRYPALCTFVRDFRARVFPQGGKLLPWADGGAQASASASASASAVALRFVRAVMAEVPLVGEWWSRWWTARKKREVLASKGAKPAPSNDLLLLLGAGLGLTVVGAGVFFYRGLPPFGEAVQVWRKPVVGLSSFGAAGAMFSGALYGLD

B1: darobactin A (peptide)
chain: WNWSKSF
modifications: also: backbone cyclizations, places not given here
[1]
  Kd: 149 nM
[2]
  Kd: 166 nM

B2: linear darobactin (peptide)
chain: WNWSKSF
[3]
  Kd: 491000 nM
